Results: patent CN115806612A (SHENZHEN KANGTI BIOMEDICAL TECH CO LTD, dated 2023)

Molecular target: APP蛋白 (amyloid precursor protein, APP)
Experiment: SPR

Chain of APP蛋白 (amyloid precursor protein, APP) (chain, as listed by the source): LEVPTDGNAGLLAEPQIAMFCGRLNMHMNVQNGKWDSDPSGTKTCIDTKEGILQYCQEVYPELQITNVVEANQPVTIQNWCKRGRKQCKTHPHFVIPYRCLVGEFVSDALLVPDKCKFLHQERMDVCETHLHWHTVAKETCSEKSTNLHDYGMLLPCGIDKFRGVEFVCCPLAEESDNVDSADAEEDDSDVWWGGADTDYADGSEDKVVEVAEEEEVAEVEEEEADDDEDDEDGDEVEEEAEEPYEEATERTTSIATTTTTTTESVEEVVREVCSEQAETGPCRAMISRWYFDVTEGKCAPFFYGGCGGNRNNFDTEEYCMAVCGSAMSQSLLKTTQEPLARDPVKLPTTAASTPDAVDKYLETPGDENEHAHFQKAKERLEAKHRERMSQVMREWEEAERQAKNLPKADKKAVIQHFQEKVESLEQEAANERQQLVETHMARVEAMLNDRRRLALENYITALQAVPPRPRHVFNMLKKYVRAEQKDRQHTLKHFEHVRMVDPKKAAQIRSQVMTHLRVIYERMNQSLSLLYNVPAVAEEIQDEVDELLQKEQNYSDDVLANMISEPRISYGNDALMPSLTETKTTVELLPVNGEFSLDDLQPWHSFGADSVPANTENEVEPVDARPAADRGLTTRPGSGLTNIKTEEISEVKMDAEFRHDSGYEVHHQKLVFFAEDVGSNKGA

Kd: 70 nM | koff: 0.00921 s⁻¹ | kon: 130000 M⁻¹ s⁻¹
B1: 纳米抗体P2-10C (anti-APP nanobody P2-10C) (VHH)
VHH: DVQLQESGGGLVQPGGSLRLSCAASGIIFSGYYMSWVRQAPGKGPEWVSSINPSGSSTRYADSVKGRFTISRDNAKNTVYLQMYSLKPEDTALYYCSRSRDGLGDVRGQGTQVTVSS
notes: Monovalent alpaca VHH expressed from pET22b in E. coli BL21 and purified on Ni resin and by size exclusion; also called 抗APP的纳米抗体; 抗APP单域重链抗体
